Source: patent publication US20130011378A1, “Stable formulations of a hyaluronan-degrading enzyme” (priority 2011, published 2013)

Assay: RP-HPLC: insulin apparent solubility / percent recovery
Details: 7 days at 2-8° C.
Summary of the method: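 Vial samples withdrawn at each time point, centrifuged, held at 4 °C, run in duplicate by RP-HPLC. Apparent solubility = combined insulin main and desamido peak areas as percent versus standards/initial formulation; purity = main insulin peak as percent of all insulin species.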

Insulin Aspart
Solubility of Insulin Aspart, % remaining of the original concentration (0.2% methylparaben + […] m-cresol, pH 6.6, NaCl 50 mM): 57.7%
Solubility of Insulin Aspart, % remaining of the original concentration (0.2% methylparaben + […] m-cresol, pH 6.6, NaCl 80 mM): 32.1%
Solubility of Insulin Aspart, % remaining of the original concentration (0.2% methylparaben + […] m-cresol, pH 6.6, NaCl 110 mM): 21.1%
Solubility of Insulin Aspart, % remaining of the original concentration (0.2% methylparaben + […] m-cresol, pH 6.6, NaCl 140 mM): 14.7%
Solubility of Insulin Aspart, % remaining of the original concentration (0.2% methylparaben + […] m-cresol, pH 6.8, NaCl 50 mM): 97.2%
Solubility of Insulin Aspart, % remaining of the original concentration (0.2% methylparaben + […] m-cresol, pH 6.8, NaCl 80 mM): 84.1%
Solubility of Insulin Aspart, % remaining of the original concentration (0.2% methylparaben + […] m-cresol, pH 6.8, NaCl 110 mM): 54.2%
Solubility of Insulin Aspart, % remaining of the original concentration (0.2% methylparaben + […] m-cresol, pH 6.8, NaCl 140 mM): 32.2%
Solubility of Insulin Aspart, % remaining of the original concentration (0.2% methylparaben + […] m-cresol, pH 7.0, NaCl 50 mM): 98.7%
Solubility of Insulin Aspart, % remaining of the original concentration (0.2% methylparaben + […] m-cresol, pH 7.0, NaCl 80 mM): 100.2%
Solubility of Insulin Aspart, % remaining of the original concentration (0.2% methylparaben + […] m-cresol, pH 7.0, NaCl 110 mM): 96.3%
Solubility of Insulin Aspart, % remaining of the original concentration (0.2% methylparaben + […] m-cresol, pH 7.0, NaCl 140 mM): 67.9%
Solubility of Insulin Aspart, % remaining of the original concentration (0.2% methylparaben + […] m-cresol, pH 7.2, NaCl 50 mM): 99.0%
Solubility of Insulin Aspart, % remaining of the original concentration (0.2% methylparaben + […] m-cresol, pH 7.2, NaCl 80 mM): 100.2%
Solubility of Insulin Aspart, % remaining of the original concentration (0.2% methylparaben + […] m-cresol, pH 7.2, NaCl 110 mM): 99.5%
Solubility of Insulin Aspart, % remaining of the original concentration (0.2% methylparaben + […] m-cresol, pH 7.2, NaCl 140 mM): 101.6%
Solubility of Insulin Aspart, % remaining of the original concentration (0.2% methylparaben + […] m-cresol, pH 7.4, NaCl 50 mM): 99.1%
Solubility of Insulin Aspart, % remaining of the original concentration (0.2% methylparaben + […] m-cresol, pH 7.4, NaCl 80 mM): 100.5%
Solubility of Insulin Aspart, % remaining of the original concentration (0.2% methylparaben + […] m-cresol, pH 7.4, NaCl 110 mM): 99.6%
Solubility of Insulin Aspart, % remaining of the original concentration (0.2% methylparaben + […] m-cresol, pH 7.4, NaCl 140 mM): 99.6%
Solubility of Insulin Aspart, % remaining of the original concentration (0.2% methylparaben + […] m-cresol, pH 7.6, NaCl 50 mM): 99.3%
Solubility of Insulin Aspart, % remaining of the original concentration (0.2% methylparaben + […] m-cresol, pH 7.6, NaCl 80 mM): 100.6%
Solubility of Insulin Aspart, % remaining of the original concentration (0.2% methylparaben + […] m-cresol, pH 7.6, NaCl 110 mM): 99.8%
Solubility of Insulin Aspart, % remaining of the original concentration (0.2% methylparaben + […] m-cresol, pH 7.6, NaCl 140 mM): 99.8%
Solubility of Insulin Aspart, % remaining of the original concentration (0.2% phenol + […] m-cresol, pH 6.6, NaCl 50 mM): 91.8%
Solubility of Insulin Aspart, % remaining of the original concentration (0.2% phenol + […] m-cresol, pH 6.6, NaCl 80 mM): 59.2%
Solubility of Insulin Aspart, % remaining of the original concentration (0.2% phenol + […] m-cresol, pH 6.6, NaCl 110 mM): 58.0%
Solubility of Insulin Aspart, % remaining of the original concentration (0.2% phenol + […] m-cresol, pH 6.6, NaCl 140 mM): 39.3%
Solubility of Insulin Aspart, % remaining of the original concentration (0.2% phenol + […] m-cresol, pH 6.8, NaCl 50 mM): 98.8%
Solubility of Insulin Aspart, % remaining of the original concentration (0.2% phenol + […] m-cresol, pH 6.8, NaCl 80 mM): 91.8%
Solubility of Insulin Aspart, % remaining of the original concentration (0.2% phenol + […] m-cresol, pH 6.8, NaCl 110 mM): 72.8%
Solubility of Insulin Aspart, % remaining of the original concentration (0.2% phenol + […] m-cresol, pH 6.8, NaCl 140 mM): 50.9%
Solubility of Insulin Aspart, % remaining of the original concentration (0.2% phenol + […] m-cresol, pH 7.0, NaCl 50 mM): 99.1%
Solubility of Insulin Aspart, % remaining of the original concentration (0.2% phenol + […] m-cresol, pH 7.0, NaCl 80 mM): 100.6%
Solubility of Insulin Aspart, % remaining of the original concentration (0.2% phenol + […] m-cresol, pH 7.0, NaCl 110 mM): 99.9%
Solubility of Insulin Aspart, % remaining of the original concentration (0.2% phenol + […] m-cresol, pH 7.0, NaCl 140 mM): 88.9%
Solubility of Insulin Aspart, % remaining of the original concentration (0.2% phenol + […] m-cresol, pH 7.2, NaCl 50 mM): 99.1%
Solubility of Insulin Aspart, % remaining of the original concentration (0.2% phenol + […] m-cresol, pH 7.2, NaCl 80 mM): 100.5%
Solubility of Insulin Aspart, % remaining of the original concentration (0.2% phenol + […] m-cresol, pH 7.2, NaCl 110 mM): 100.0%
Solubility of Insulin Aspart, % remaining of the original concentration (0.2% phenol + […] m-cresol, pH 7.2, NaCl 140 mM): 99.7%
Solubility of Insulin Aspart, % remaining of the original concentration (0.2% phenol + […] m-cresol, pH 7.4, NaCl 50 mM): 99.2%
Solubility of Insulin Aspart, % remaining of the original concentration (0.2% phenol + […] m-cresol, pH 7.4, NaCl 80 mM): 100.6%
Solubility of Insulin Aspart, % remaining of the original concentration (0.2% phenol + […] m-cresol, pH 7.4, NaCl 110 mM): 100.0%
Solubility of Insulin Aspart, % remaining of the original concentration (0.2% phenol + […] m-cresol, pH 7.4, NaCl 140 mM): 99.7%
Solubility of Insulin Aspart, % remaining of the original concentration (0.2% phenol + […] m-cresol, pH 7.6, NaCl 50 mM): 99.2%
Solubility of Insulin Aspart, % remaining of the original concentration (0.2% phenol + […] m-cresol, pH 7.6, NaCl 80 mM): 100.8%
Solubility of Insulin Aspart, % remaining of the original concentration (0.2% phenol + […] m-cresol, pH 7.6, NaCl 110 mM): 100.2%
Solubility of Insulin Aspart, % remaining of the original concentration (0.2% phenol + […] m-cresol, pH 7.6, NaCl 140 mM): 99.8%
Solubility of Insulin Aspart, % remaining of the original concentration ([…] phenol + […] m-cresol, pH 6.6, NaCl 50 mM): 97.9%
Solubility of Insulin Aspart, % remaining of the original concentration ([…] phenol + […] m-cresol, pH 6.6, NaCl 80 mM): 86.3%
Solubility of Insulin Aspart, % remaining of the original concentration ([…] phenol + […] m-cresol, pH 6.6, NaCl 110 mM): 54.4%
Solubility of Insulin Aspart, % remaining of the original concentration ([…] phenol + […] m-cresol, pH 6.6, NaCl 140 mM): 38.3%
Solubility of Insulin Aspart, % remaining of the original concentration ([…] phenol + […] m-cresol, pH 6.8, NaCl 50 mM): 99.8%
Solubility of Insulin Aspart, % remaining of the original concentration ([…] phenol + […] m-cresol, pH 6.8, NaCl 80 mM): 97.9%
Solubility of Insulin Aspart, % remaining of the original concentration ([…] phenol + […] m-cresol, pH 6.8, NaCl 110 mM): 97.5%
Solubility of Insulin Aspart, % remaining of the original concentration ([…] phenol + […] m-cresol, pH 6.8, NaCl 140 mM): 60.5%
Solubility of Insulin Aspart, % remaining of the original concentration ([…] phenol + […] m-cresol, pH 7.0, NaCl 50 mM): 99.7%
Solubility of Insulin Aspart, % remaining of the original concentration ([…] phenol + […] m-cresol, pH 7.0, NaCl 80 mM): 99.3%
Solubility of Insulin Aspart, % remaining of the original concentration ([…] phenol + […] m-cresol, pH 7.0, NaCl 110 mM): 99.3%
Solubility of Insulin Aspart, % remaining of the original concentration ([…] phenol + […] m-cresol, pH 7.0, NaCl 140 mM): 100.2%
Solubility of Insulin Aspart, % remaining of the original concentration ([…] phenol + […] m-cresol, pH 7.2, NaCl 50 mM): 99.1%
Solubility of Insulin Aspart, % remaining of the original concentration ([…] phenol + […] m-cresol, pH 7.2, NaCl 80 mM): 99.2%
Solubility of Insulin Aspart, % remaining of the original concentration ([…] phenol + […] m-cresol, pH 7.2, NaCl 110 mM): 99.2%
Solubility of Insulin Aspart, % remaining of the original concentration ([…] phenol + […] m-cresol, pH 7.2, NaCl 140 mM): 101.1%
Solubility of Insulin Aspart, % remaining of the original concentration ([…] phenol + […] m-cresol, pH 7.4, NaCl 50 mM): 100.0%
Solubility of Insulin Aspart, % remaining of the original concentration ([…] phenol + […] m-cresol, pH 7.4, NaCl 80 mM): 99.6%
Solubility of Insulin Aspart, % remaining of the original concentration ([…] phenol + […] m-cresol, pH 7.4, NaCl 110 mM): 99.5%
Solubility of Insulin Aspart, % remaining of the original concentration ([…] phenol + […] m-cresol, pH 7.4, NaCl 140 mM): 101.1%
Solubility of Insulin Aspart, % remaining of the original concentration ([…] phenol + […] m-cresol, pH 7.6, NaCl 50 mM): 100.1%
Solubility of Insulin Aspart, % remaining of the original concentration ([…] phenol + […] m-cresol, pH 7.6, NaCl 80 mM): 99.7%
Solubility of Insulin Aspart, % remaining of the original concentration ([…] phenol + […] m-cresol, pH 7.6, NaCl 110 mM): 99.4%
Solubility of Insulin Aspart, % remaining of the original concentration ([…] phenol + […] m-cresol, pH 7.6, NaCl 140 mM): 101.1%
